Data as given in article PMC10629583, “Specific inhibition of an anticancer target, polo-like kinase 1, by allosterically dismantling its mechanism of substrate recognition” (Proceedings of the National Academy of Sciences of the …, 2023).
[ ]: non-standard residue; d: D form. The star is where a group is joined. FITC = O=C1OC2(c3ccc(O)cc3Oc3cc(O)ccc32)c2ccc(NC(=S)*)cc21; pT = C[C@@H](OP(=O)(O)O)[C@H](N)C(=O)O; Ahx = NCCCCCC(=O)O

Columns and labels:
Settings in all cases: both partners purified
[1] = molecular target: T1, Plk1 polo-box domain, PBD1 (residues 345–603) WT (human, UniProt P53350 345-603); test: fluorescence polarisation; direct binding: FITC-Ahx-DPPLHSpTAI-NH2 with different concentrations of recombinant PBD1 WT or mutants
T1 construct: Polo-like kinase 1 (Plk1), polo-box domain, residues 345-603; TEV-PBD1 fragment in pET-Duet-1; A TEV site precedes PBD1 in the insert; also called PBD1 WT; Plk1 PBD; source: E. coli (purified as described for the crystallography construct, Rosetta strain)
T1 sequence (P53350 345-603): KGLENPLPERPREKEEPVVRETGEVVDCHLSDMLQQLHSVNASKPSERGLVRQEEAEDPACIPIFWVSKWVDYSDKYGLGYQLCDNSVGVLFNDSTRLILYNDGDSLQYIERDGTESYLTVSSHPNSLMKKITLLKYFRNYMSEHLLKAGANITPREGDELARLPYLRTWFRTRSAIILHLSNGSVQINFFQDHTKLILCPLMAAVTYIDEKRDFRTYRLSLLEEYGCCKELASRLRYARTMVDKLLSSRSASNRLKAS

[2] = molecular target: T2, PBD1 (residues 345–603) F559R (human, UniProt P53350 345-603, F559R); test: fluorescence polarisation; inhibition assay: FITC-conjugated ligand (15 nM) mixed with PBD at its EC85 concentration, competitor varied; read about 30 min after reaction, 384-well format
T2 construct: Polo-like kinase 1 (Plk1), polo-box domain, residues 345-603, F559R; also called F559R mutant; source: E. coli (purified as described for the crystallography construct, Rosetta strain)
T2 sequence (P53350 345-603 F559R): as the sequence (P53350 345-603) above, with F215R counted along it

[3] = molecular target: T3, PBD1 (residues 345–603) F559E (human, UniProt P53350 345-603, F559E); test: as above
T3 construct: Polo-like kinase 1 (Plk1), polo-box domain, residues 345-603, F559E; also called F559E mutant; source: E. coli (purified as described for the crystallography construct, Rosetta strain)
T3 sequence (P53350 345-603 F559E): as the sequence (P53350 345-603) above, with F215E counted along it

[4] = molecular target: T4, PBD1 (residues 345–603) F559D (human, UniProt P53350 345-603, F559D); test: as above
T4 construct: Polo-like kinase 1 (Plk1), polo-box domain, residues 345-603, F559D; also called F559D mutant protein; source: E. coli (purified as described for the crystallography construct, Rosetta strain)
T4 sequence (P53350 345-603 F559D): as the sequence (P53350 345-603) above, with F215D counted along it

[5] = molecular target: T5, PBD1 (residues 345–603) F559K (human, UniProt P53350 345-603, F559K); test: as above
T5 construct: Polo-like kinase 1 (Plk1), polo-box domain, residues 345-603, F559K; also called F559K mutant; source: E. coli (purified as described for the crystallography construct, Rosetta strain)
T5 sequence (P53350 345-603 F559K): as the sequence (P53350 345-603) above, with F215K counted along it

Measured: binding result

B1: FITC-Ahx-DPPLHSpTAI-NH2 (peptide)
peptide: {FITC-Ahx}-DPPLHS[pT]AI-NH2
SMILES: CC[C@H](C)[C@H](NC(=O)[C@H](C)NC(=O)[C@@H](NC(=O)[C@H](CO)NC(=O)[C@H](Cc1c[nH]cn1)NC(=O)[C@H](CC(C)C)NC(=O)[C@@H]1CCCN1C(=O)[C@@H]1CCCN1C(=O)[C@H](CC(=O)O)NC(=O)CCCCCNC(=S)Nc1ccc2c(c1)C(=O)OC21c2ccc(O)cc2Oc2cc(O)ccc21)[C@@H](C)OP(=O)(O)O)C(N)=O
notes: also called FITC-conjugated phosphopeptide; FITC-conjugated ligand
binds: all assays above
